assay: soluble on expression in E. coli; label from the status in PepcDB or PDB records

Sequence	soluble on expression in E. coli
PTRQVLQGSRCRLEPLTLAHASDLFAAHQLAPDARSWTWLLREPESNLAEFSAWVEQVATLADPIHFAVVDQQRGKAVGSLALMRIDIAHGVVEVGHVHFSPLLSRTAMATEAHWLLMQYVFDTLGYRRYEWKCNSLNIPSARAARRLGFQYEGRFRQALVSKGHNRDTDWFSVIDGEWPELDNAMRQWLAADNFTA	not soluble
QAGRFIGQEISGRLSSRSMLAVQIDDLLKLAARFVGEERARQSFIRFAYRQGKGFNPNQNADGEWIAHTERLLAGVLGASSTRAVVKAAIEGREMQLEDVVRIADEASEVLQFNRALLQGAIENITQGISVVDQSL	not soluble
QDSDSTAAVAVLKRAVELDAESRYQQALVCYQEGIDMLLQVLKGTKESSKRCVLRTKISGYMDRAENIKKYLDQEKEDGK	soluble
QDSTQNLIPAPPLISVPLQPGFWTERFQGRWFVVGLAGNAVQKERQSRFTMYSTIYELQEDNSYNVTSILVRGQGCRYWIRTFVPSSRPGQFTLGNIHSYPQIQSYDVQVADTDYDQFAMVFFQKTSENKQYFKVTLYGRTKGLSDELKERFVSFAKSLGLKDNNIVFSVPTDQCIDN	soluble
QEGYPFPSFHLRGTHPYRSILVSANTEALSPLLASAMDLARIFGSEVYVLFVSRVEAFMPPEEKELLENLKVLVERARKTSGLEVHLIRKEGNPVRETLRLLKGKFNLLALGYTPGRRTAFFRPYVPQLLAQASPVSTLLVPEVNLER	not soluble
QFLQKQHFLILGLAKSGYAAASILHEKGIYVAVNDQKPFEENEPAQKLSEKGIEVVCGEHPVSLFDQHQITILIKNPGIPYENIMVQEAEKRGIPVW	not soluble
QGQPLANFEGGQPMEALQQWTAAVVKAVEGKLPGITGDDAEAEPAEDPRFEPATEALNAGDFDAAIAVYEEILRHEPKNQMALQARDNARLLSRLKDADRSVDPIAVADADLQDVDKAFAAADAEITTGKVEEAFDRLIELLPNEKVRTRLLELYSVFEPSDSRVQAARSKMASKLF	not soluble
QHLNALMNKEILGKKPGKKKKDKTKRPVLYVIDFSGDIKATQVEQLRDEVTSVLSIAKPEDEVLVRLESPGGAVNGYGLAASQLQRIRDKKIPLTVSIDKMAASGGYLMACVANKIIAAPFAIIGSIGVVAQIPNFHRWLKKNNIDVELLTAGEYKRTLTLFAENTEKGRKKFQEDLEKIHTAFREYVLKNRSQLDIDKVATGEHWIAKDAFDLRLVDKLATSDE	not soluble
QIVDATEALMHDQNSQRITLNMVNSLALHWWIPRMPRLQTYAPQLDVRLSNLSGRFNLEQEGVDAALVHGNPEEWQDYYCEKLSEDELVLVCSPDLIDHSNPVNLSDILKTYPLIEVTNERRKHDWQVWSDATGVARPKNKKPITFNMSIQAVQATTRRLGVLVTHRLFVKDDIKYGQLIELGEPVINPNQQLYFVCPPHKLKQESFHLLRSWLKQEFA	soluble
QLGKDHAIVERNEKIDDAFKSDPASYQSVYDAQGRIKDGQEWMRVSLKGRFDANNEVLLRMRPVEGTPAYQSLVPFTLESGESLLINRGFVPGDAANVPELAAVPTETVTIVAHARANEGMPASAPMSAHGYQQVYGINTTQISEITHTTLGTDFAQLSQDQPGVLNAMPIPQLDRGNHLSYGLQ	not soluble
QLLEPIRDFEARKCPVHGKTMELFCQTDQTCICYLCMFQEHKNHSTVTVEEAKAEKETE	soluble
QLSAGCGELSPQIGGGWLWSSMHRSGRYGTQQQRAGSKTAGPPCQWSRMASEGTNIPSPVVRQIDKQFLICSICLERYKNPKVLPCLHTFCERCLQNYIPAHSLTLSCPVCRQTSILPEKGVAALQNNFFITNLMDVLQRTPGSNAEESSILETVTAVAAGKPLSCPNHDGNVMEFYCQSCETAMCRECTEGEHAEHPTVPLKDVVEQHKASLQVQLDAVNKRLPEIDSALQFISEIIHQLTNQKASIVDDIHSTFDELQKTLNVRKSVLLMELEVNYGLKHKVLQSQLDTLLQGQESIKSCSNFTAQALNHGTETEVLLVKKQMSEKLNELADQDFPLHPRENDQLDFIVETEGLKKSIHNLGTILTTNAVASETVATGEGLRQTIIGQPMSVTITTKDKDGELCKTGNAYLTAELSTPDGSVADGEILDNKNGTYEFLYTVQKEGDFTLSLRLYDQHIRGSPFKLKVIRSADVSPTTEGVKRRVKSPGSGHVKQKAVKRPASMYSTGKRKENPIEDDLIFRVGTKGRNKGEFTNLQGVAASTNGKILIADSNNQCVQIFSNDGQFKSRFGIRGRSPGQLQRPTGVAVHPSGDIIIADYDNKWVSIFSSDGKFKTKIGSGKLMGPKGVSVDRNGHIIVVDNKACCVFIFQPNGKIVTRFGSRGNGDRQFAGPHFAAVNSNNEIIITDFHNHSVKVFNQEGEFMLKFGSNGEGNGQFNAPTGVAVDSNGNIIVADWGNSRIQVFDGSGSFLSYINTSADPLYGPQGLALTSDGHVVVADSGNHCFKVYRYLQ	soluble
QMEEGFVCFKLLYDVKKNRISIDDAVAENGVLPLMKHISWQFDKLPHMLIAGGTGGGKTYFMLTIIKACVGLGADVRILDPKNADLADLEEVLPKKVYSQKNGILMCLRKSVDGMMERMDEMKQMSNYKTGENYAYLGLKPVFIFFDEYVAFMDLLDMKERNEALSYMKQLVMLGRQAGYFLVLGAQRPDA	not soluble
QMQMGLSSFDRVMDVVDMTAEHPDPEHPLDLPAGPLSLELENVHFDGILNGTTLTVPAGDTVAIVGPPGSGKTMAVQLLCGFYRPESGQIRLGGVDTTQLRRHDLRNAVSCVFDDPFLYSASIRDNIAMGRNVTDVEIERAARIAQAHDFITALPHGYDEIVGERGLTLSGGQRQRIAIARAVLERPRVLILDDATSAIDVTTEHAIYEQLSTELSDVTILAVAHRNSTLSLADSVALIDNGRIVDHGSLSYMRANPQFVYLMDVQEHLRKRNSHEPFVPFDDGTEPEWTQLWPEIASSQHDSRLTINSSAMKAAASVAGANPAAGGRGRGRGGMAASIPATPELLARVDALPPTRDTPGPRPLLDHDHGKVTAHQLFASVR	not soluble
QMTARDVYLPVAAQPSVDTLVGMSQQAEDRGYDRVWLPETWGRDAVTTLTSIAEHTSTVGLGSSILNVYSRSPALLGQTAATLQEVSDGRFRAGVGPSGPIVIEGWHGREFESPLKYTRETVDIMKQVLSGETVDYDGDIFSLSGFRLRCEPPEPAPPVDAGGLGPKSVELAGRFADGWHALMLTADGLRDRLEDFEHGADLGDRDRADQRVTLSLTCCAMDDREQARELARQHVAFYIGGMGTFYRDALARQGYEDTAYEIAEQWGSGNKGAAVDAISDELLDSIAVAGTPEDCRDRIAQFEDIDGVDAINISFPRAAERDTIDTTIDVL	not soluble
QMTLTELRAFLDQMNNLPCAMHQIGDVKGVLEQVEAYQAEAREALASLPSSPGLLQSLLERGRQLGVEVPEAQQLQRQVEQARWLDEVKRTLAPSARRGTLAVMRGLLVAGASVAPSPAVDKAQAELQELLTIAERWEEKAHLCLEARQKHPPATLEAIIREAENIPVHLPNIQALKEALAKARAWIADVDEIQNGDHYPCLDDLEGLVAVGRDLPVGLEELRQLELQVLTAHSWREKASKTFLKKNS	not soluble
QSDEWRRTTRLLGEILEDTTRPPLERLRRLVLAFVRSECEEAAIRVALSDAAPLYRDADEAREVKAEGARVFQAFLREALPEVAEAERSLAGDLLTTTLGAVGKQFSEQPRSEAEIERYAEALADMLCAYLAALGER	not soluble
QVQLQQPGAELVKPGASVKLSCKASGYTFTSDWIHWVKQRPGHGLEWIGEIIPSYGRANYNEKIQKKATLTADKSSSTAFMQLSSLTSEDSAVYYCARERGDGYFAVWGAGTTVTVSSAKTTPPSVYPLAPGSAAQTNSMVTLGCLVKGYFPEPVTVTWNSGSLSSGVHTFPAVLQSDLYTLSSSVTVPSSSWPSETVTCNVAHPASSTKVDKKIVPRD	soluble
QVTVQSSPNFTQHVREQSLVTDQLSRRLIRTYQLYSRTSGKHVQVLANKRINAMAEDGDPFAKLIVETDTFGSRVRVRGAETGLYICMNKKGKLIAKSNGKGKDCVFTEIVLENNYTALQNAKYEGWYMAFTRKGRPRKGSKTRQHQREVHFMKRLPRGHHTTE	soluble
RADTLIYMTVNPKTNTTDMVSIPRDTYTKIIGKGTMDKINHSYAFGGTQMTVDTVENFLDVPVDYFVKVNMESFRDVVDTLGGITVNSTFAFSYDGYSFGKGEITLNGKEALAYTRMRKEDPRGDFGRQDRQRQVIQGIINKGAN	not soluble

— the DeepSol protein solubility set
